Experimental data published in patent EP3628678A1 (Ecole Polytechnique Federale De Lausanne (EPFL) EPFL-TTO, dated 2020).

Molecular target: RSVF on RSV A2 strain carrying a luciferase gene (RSV-Luc) (RSV A2 strain, UniProt P03420 26-574)
Test: cell-based or functional assay

Sequence of RSVF on RSV A2 strain carrying a luciferase gene (RSV-Luc) (P03420 26-574): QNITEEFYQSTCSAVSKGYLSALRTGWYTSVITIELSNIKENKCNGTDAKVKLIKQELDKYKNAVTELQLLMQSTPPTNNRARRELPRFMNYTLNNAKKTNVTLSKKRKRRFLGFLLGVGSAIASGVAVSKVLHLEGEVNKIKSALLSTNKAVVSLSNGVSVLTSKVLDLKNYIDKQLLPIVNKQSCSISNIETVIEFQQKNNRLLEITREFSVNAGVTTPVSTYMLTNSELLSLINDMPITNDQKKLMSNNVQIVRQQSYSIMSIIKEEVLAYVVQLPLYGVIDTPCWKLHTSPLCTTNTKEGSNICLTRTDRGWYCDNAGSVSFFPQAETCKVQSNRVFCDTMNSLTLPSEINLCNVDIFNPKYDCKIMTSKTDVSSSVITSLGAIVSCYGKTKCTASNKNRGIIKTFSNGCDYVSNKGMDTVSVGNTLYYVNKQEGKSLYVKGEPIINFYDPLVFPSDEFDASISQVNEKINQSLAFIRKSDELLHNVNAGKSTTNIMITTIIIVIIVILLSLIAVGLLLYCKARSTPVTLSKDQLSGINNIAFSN

B1: Palivizumab (antibody, V domains shown)
VH: QVTLRESGPALVKPTQTLTLTCTFSGFSLSTSGMSVGWIRQPPGKALEWLADIWWDDKKDYNPSLKSRLTISKDTSKNQVVLKVTNMDPADTATYYCARSMITNWYFDVWGAGTTVTVSS
VL: DIQMTQSPSTLSASVGDRVTITCKCQLSVGYMHWYQQKPGKAPKLLIYDTSKLASGVPSRFSGSGSGTEFTLTISSLQPDDFATYYCFQGSGYPFTFGGGTKLEIK
RSV neutralization IC50 (luciferase signal of RSV-Luc on HepG2 cells): 0.32 µg/mL
